Laboratory results reported in PMC10397247.
Values belong to the binder of their own block, whether it stands above or below them.

How the values were obtained:
Assay in all cases: two-hybrid library CCNG1;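 note: natural log of median RNA to DNA barcode read ratio; higher means stronger binding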
4H2618-bN = target: T1, 4H2618-bN
T1 chain: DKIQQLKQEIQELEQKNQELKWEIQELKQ

4H2667-bN = target: T2, 4H2667-bN
T2 chain: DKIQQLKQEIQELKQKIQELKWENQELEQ

4H2729-bN = target: T3, 4H2729-bN
T3 chain: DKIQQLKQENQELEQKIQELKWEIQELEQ

4H3112-bN = target: T4, 4H3112-bN
T4 chain: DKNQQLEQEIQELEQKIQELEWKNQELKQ

4H3185-bN = target: T5, 4H3185-bN
T5 chain: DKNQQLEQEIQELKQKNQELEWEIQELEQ

4H331-bN = target: T6, 4H331-bN
T6 chain: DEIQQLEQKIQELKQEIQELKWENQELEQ

4H3354-bN = target: T7, 4H3354-bN
T7 chain: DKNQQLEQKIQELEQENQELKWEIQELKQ

4H338-bN = target: T8, 4H338-bN
T8 chain: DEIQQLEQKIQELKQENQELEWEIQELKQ

4H3427-bN = target: T9, 4H3427-bN
T9 chain: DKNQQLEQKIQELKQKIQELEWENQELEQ

4H3628-bA = target: T10, 4H3628-bA
T10 chain: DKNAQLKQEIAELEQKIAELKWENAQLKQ

4H3782-bN = target: T11, 4H3782-bN
T11 chain: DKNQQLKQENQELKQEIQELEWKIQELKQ

4H3855-bN = target: T12, 4H3855-bN
T12 chain: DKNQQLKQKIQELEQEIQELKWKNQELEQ

4H4001-bN = target: T13, 4H4001-bN
T13 chain: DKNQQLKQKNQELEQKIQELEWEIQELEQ

4H454-bN = target: T14, 4H454-bN
T14 chain: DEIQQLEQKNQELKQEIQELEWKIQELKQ

4H568-bN = target: T15, 4H568-bN
T15 chain: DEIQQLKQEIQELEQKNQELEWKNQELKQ

4H607-bN = target: T16, 4H607-bN
T16 chain: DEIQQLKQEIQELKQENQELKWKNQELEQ

4H687-bN = target: T17, 4H687-bN
T17 chain: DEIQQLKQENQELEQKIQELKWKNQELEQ

4H717-bN = target: T18, 4H717-bN
T18 chain: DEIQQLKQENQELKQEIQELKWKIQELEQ

4H72-bN = target: T19, 4H72-bN
T19 chain: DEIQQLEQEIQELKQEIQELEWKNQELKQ

4H754-bN = target: T20, 4H754-bN
T20 chain: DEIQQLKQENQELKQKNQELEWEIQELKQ

4H797-bN = target: T21, 4H797-bN
T21 chain: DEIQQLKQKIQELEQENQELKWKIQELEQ

4H883-bN = target: T22, 4H883-bN
T22 chain: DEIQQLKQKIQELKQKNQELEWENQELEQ

4H908-bN = target: T23, 4H908-bN
T23 chain: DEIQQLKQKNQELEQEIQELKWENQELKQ

4H918-bN = target: T24, 4H918-bN
T24 chain: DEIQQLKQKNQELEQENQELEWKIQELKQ

4H953-bN = target: T25, 4H953-bN
T25 chain: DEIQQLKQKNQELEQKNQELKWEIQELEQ

4H967-bN = target: T26, 4H967-bN
T26 chain: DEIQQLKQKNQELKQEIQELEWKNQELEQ

4H2610-bA = target: T27, 4H2610-bA
T27 chain: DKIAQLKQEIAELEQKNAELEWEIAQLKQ

4H2667-bA = target: T28, 4H2667-bA
T28 chain: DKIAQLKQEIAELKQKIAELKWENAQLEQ

4H2697-bA = target: T29, 4H2697-bA
T29 chain: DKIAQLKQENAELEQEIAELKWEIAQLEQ

4H3189-bA = target: T30, 4H3189-bA
T30 chain: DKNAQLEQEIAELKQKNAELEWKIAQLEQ

4H331-bA = target: T31, 4H331-bA
T31 chain: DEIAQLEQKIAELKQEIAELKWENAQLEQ

4H3606-bA = target: T32, 4H3606-bA
T32 chain: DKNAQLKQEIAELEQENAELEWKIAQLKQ

4H370-bA = target: T33, 4H370-bA
T33 chain: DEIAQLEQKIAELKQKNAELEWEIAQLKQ

4H3782-bA = target: T34, 4H3782-bA
T34 chain: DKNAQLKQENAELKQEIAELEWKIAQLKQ

4H3843-bA = target: T35, 4H3843-bA
T35 chain: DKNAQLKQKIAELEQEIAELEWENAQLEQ

4H4001-bA = target: T36, 4H4001-bA
T36 chain: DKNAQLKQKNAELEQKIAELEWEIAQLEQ

4H462-bA = target: T37, 4H462-bA
T37 chain: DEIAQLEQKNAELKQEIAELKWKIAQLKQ

4H568-bA = target: T38, 4H568-bA
T38 chain: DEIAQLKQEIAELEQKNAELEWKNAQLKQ

4H607-bA = target: T39, 4H607-bA
T39 chain: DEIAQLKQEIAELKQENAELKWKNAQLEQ

4H687-bA = target: T40, 4H687-bA
T40 chain: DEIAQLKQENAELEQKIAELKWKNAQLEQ

4H72-bA = target: T41, 4H72-bA
T41 chain: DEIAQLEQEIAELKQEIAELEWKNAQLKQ

4H797-bA = target: T42, 4H797-bA
T42 chain: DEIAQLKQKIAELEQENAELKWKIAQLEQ

4H883-bA = target: T43, 4H883-bA
T43 chain: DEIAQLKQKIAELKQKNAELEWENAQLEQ

4H918-bA = target: T44, 4H918-bA
T44 chain: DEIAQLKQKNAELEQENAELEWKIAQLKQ

4H953-bA = target: T45, 4H953-bA
T45 chain: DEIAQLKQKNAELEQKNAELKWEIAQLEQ

4H967-bA = target: T46, 4H967-bA
T46 chain: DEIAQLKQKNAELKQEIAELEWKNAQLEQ

interaction score (4H2618-bN): 0.45 | interaction score (4H2667-bN): -0.229 | interaction score (4H2729-bN): 1.51 | interaction score (4H3112-bN): -0.924 | interaction score (4H3185-bN): 0.0545 | interaction score (4H331-bN): -0.0801 | interaction score (4H3354-bN): -0.374 | interaction score (4H338-bN): 0.959 | interaction score (4H3427-bN): 0.0822 | interaction score (4H3628-bA): 0.00803 | interaction score (4H3782-bN): -0.594 | interaction score (4H3855-bN): -0.781 | interaction score (4H4001-bN): -0.538 | interaction score (4H454-bN): 0.067 | interaction score (4H568-bN): -1.88 | interaction score (4H607-bN): -0.0391 | interaction score (4H687-bN): -0.758 | interaction score (4H717-bN): -0.442 | interaction score (4H72-bN): -0.128 | interaction score (4H754-bN): -0.67 | interaction score (4H797-bN): -0.249 | interaction score (4H883-bN): 0.595 | interaction score (4H908-bN): -1.09 | interaction score (4H918-bN): 0.558 | interaction score (4H953-bN): -1.12 | interaction score (4H967-bN): -1.39
B1: 4H2618-bN (peptide)
chain: DKIQQLKQEIQELEQKNQELKWEIQELKQ

interaction score (4H2610-bA): -0.2 | interaction score (4H2667-bA): 0.718 | interaction score (4H2697-bA): 0.713 | interaction score (4H3189-bA): -0.366 | interaction score (4H331-bA): -0.211 | interaction score (4H3606-bA): 0.322 | interaction score (4H370-bA): -1.17 | interaction score (4H3782-bA): -0.515 | interaction score (4H3843-bA): 0.444 | interaction score (4H4001-bA): 0.0746 | interaction score (4H462-bA): 1.76 | interaction score (4H568-bA): -0.602 | interaction score (4H607-bA): -1.15 | interaction score (4H687-bA): -0.571 | interaction score (4H72-bA): -0.563 | interaction score (4H797-bA): -0.486 | interaction score (4H883-bA): 0.538 | interaction score (4H918-bA): 1.13 | interaction score (4H953-bA): 0.322 | interaction score (4H967-bA): -1.02
B2: 4H2610-bA (peptide)
chain: DKIAQLKQEIAELEQKNAELEWEIAQLKQ
